Measured values: article PMC6346213
Where “and” joins values, the source holds several entries; their conditions need not be identical. Equal values may be shown once.

Target: COP9 signalosome (CSN) holo-complex (human (endogenous in HEK293)) (UniProt Q13098)
Experiment: SEC; co-fractionation of native HEK293 lysate (freeze-thaw, 0.5% NP-40); Yarra-SEC-4000, 50 mM HEPES pH 7.5, 150 mM NaCl, 4°C; 81 fractions quantified by SWATH-MS; co-elution of protein profiles scored with CCprofiler (5% FDR) and by manual inspection

Chain of UniProt Q13098 (Q13098 whole entry, looked up, one chain of several): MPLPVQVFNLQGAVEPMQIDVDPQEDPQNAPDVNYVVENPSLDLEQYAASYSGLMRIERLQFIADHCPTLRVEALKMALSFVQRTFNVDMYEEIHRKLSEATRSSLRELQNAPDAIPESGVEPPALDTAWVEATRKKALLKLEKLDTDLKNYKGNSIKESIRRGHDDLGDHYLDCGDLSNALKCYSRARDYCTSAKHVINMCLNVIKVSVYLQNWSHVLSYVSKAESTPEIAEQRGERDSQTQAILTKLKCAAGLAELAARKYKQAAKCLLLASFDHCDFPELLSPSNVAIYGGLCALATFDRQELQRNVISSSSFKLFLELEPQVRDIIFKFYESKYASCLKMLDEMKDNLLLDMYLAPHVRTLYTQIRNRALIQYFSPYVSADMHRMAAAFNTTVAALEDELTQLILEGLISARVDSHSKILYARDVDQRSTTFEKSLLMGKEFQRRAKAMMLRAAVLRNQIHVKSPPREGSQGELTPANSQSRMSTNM

**Q.** Which substrate-bound fraction of CSN holo-complex does the source give for “E3-CRL substrate of the COP9 signalosome (components CUL4A and DDB2) (from UniProt Q13619 1-759; Q92466 1-427) (complex)” here?
**A.** The substrate-bound fraction of CSN holo-complex was 25% and 22%.
